± gives the half width of the 95% confidence interval.
Experiments:
[1] = folding stability dG unfold from trypsin proteolysis; higher = more stable
Procedure, shortened: (§1)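 Only designs with AlphaFold2 dimer inter-PAE above 15 were retained; each was a mini-protein under 80 residues with no cysteine, in a PA-tagged cDNA display construct. After digestion with trypsin and chymotrypsin and sequencing, K50 was inferred by Bayesian fitting of counts, and unfolding free energy was derived per protease or combined against a sequence-predicted unfolded-state K50 and a shared folded-state K50.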

[2] = folding stability dG unfold (combined trypsin and chymotrypsin); higher = more stable
Procedure, shortened: as §1

[3] = folding stability dG unfold from chymotrypsin proteolysis; higher = more stable
Procedure, shortened: as §1

Row | Sequence | folding stability dG unfold [1] | folding stability dG unfold [2] | folding stability dG unfold [3]
1 | SAGGSAGGSAGGDVKVTVTVTVDPETGEPVVEVTLELPGDRAIRARFTPDGRLLSVEEVDSAGGSAGGSAGG [r7_454_TrMRF] | 3.79 ± 0.25 kcal/mol | 3.51 ± 0.21 kcal/mol | 3.01 ± 0.16 kcal/mol
2 | SAGGSAGGSAGGEAFEVERVELVLDPETGTPYLLVYFRDGRVLVYDLPRGTWRVVPAEELSAGGSAGGSAGG [r11_922_TrMRF] | 2.21 ± 0.049 kcal/mol | 2.81 ± 0.065 kcal/mol | 3.06 ± 0.076 kcal/mol
3 | SAGGSAGGSAGGEELEVSVSVSVTEVDGKLYLTATVTIDGKEYTFTAELTVTLPPPPPEESAGGSAGGSAGG [r7_413_TrROS_Hall] | 2.77 ± 0.32 kcal/mol | 3.71 ± 0.28 kcal/mol | 3.91 ± 0.19 kcal/mol
4 | SAGGSAGGSAGGEIEVKEGEVVLVRLPDGTLLLYDKNTRRLYRFRFKDGKLEVEELELPESAGGSAGGSAGG [r7_527_TrROS_Hall] | 3.35 ± 0.06 kcal/mol | 4.03 ± 0.12 kcal/mol | 4.356 ± 0.039 kcal/mol
5 | SAGGSAGGSAGGEKEEEEVTVTIYNKETDKVIEITVPKGVTEEEARKKAKELAEELEKKKSAGGSAGGSAGG [r7_957_TrROS_Hall] | 0.29 ± 0.032 kcal/mol | -0.00187 ± 0.19 kcal/mol | -0.316 ± 0.21 kcal/mol
6 | SAGGSAGGSAGGEKEPVTLLVVRVDGKLVVVSEEELKKLAEELNVEVEVRLVTVTKEELKSAGGSAGGSAGG [r7_185_TrROS_Hall] | 0.567 ± 0.038 kcal/mol | 1.57 ± 0.085 kcal/mol | 1.94 ± 0.033 kcal/mol
7 | SAGGSAGGSAGGEKIVLKVKPGDTVEVNGKTIKVPPGALITFDKKTKKLTIEPLSPEDLSAGGSAGGSAGGS [r10_353_TrROS_Hall] | 0.954 ± 0.058 kcal/mol | 1.11 ± 0.19 kcal/mol | 1.14 ± 0.26 kcal/mol
8 | SAGGSAGGSAGGEKPKYIIIPATLTVPVLTKEGEGEKVEYKEITLLLIINPDTNEITVSSAGGSAGGSAGGS [r10_533_TrMRF] | 2.7 ± 0.15 kcal/mol | 2.86 ± 0.22 kcal/mol | 3.07 ± 0.07 kcal/mol
9 | SAGGSAGGSAGGEKTIRITVKNENGETLEIEVSEEDAEELLKALEDAGISLEEITRIEPVSAGGSAGGSAGG [r7_745_TrROS_Hall] | 1.92 ± 0.12 kcal/mol | 1.8 ± 0.15 kcal/mol | 1.62 ± 0.098 kcal/mol
10 | SAGGSAGGSAGGEKVTLTLELPAEEIEELAKALAPPGAKVKITKISYDKENKKVTIEIESAGGSAGGSAGGS [r10_1030_TrROS_Hall] | 0.937 ± 0.061 kcal/mol | 1.23 ± 0.07 kcal/mol | 1.4 ± 0.026 kcal/mol
11 | SAGGSAGGSAGGELNIDDIKIDWFPADDMDDRYIFTEKIRGPNGKPTMEVTFWLPAGDLSAGGSAGGSAGGS [r10_155_TrROS] | 0.262 ± 0.068 kcal/mol | 0.00836 ± 0.18 kcal/mol | -0.261 ± 0.62 kcal/mol
12 | SAGGSAGGSAGGEPDKVSIHINITEEFIEQIKNGKPIPPWARPAIKYAQKKGKKVEIVWSAGGSAGGSAGGS [r10_890_TrROS] | -1.04 ± 0.61 kcal/mol | -0.498 ± 0.26 kcal/mol | -0.532 ± 0.53 kcal/mol
13 | SAGGSAGGSAGGEPIPTKTIEVDEATGTVTVTVTFPPPNETVTVTRPAPPDVSLEEVLASAGGSAGGSAGGS [r10_676_JUSTAS] | 1.07 ± 0.17 kcal/mol | 1.59 ± 0.15 kcal/mol | 1.58 ± 0.15 kcal/mol
14 | SAGGSAGGSAGGERVVRFPYTGTLEDVLEAARRLRRLGGVEVGYDPENGVLLARFKGGGLSAGGSAGGSAGG [r7_219_TrMRF] | 0.54 ± 0.056 kcal/mol | 1.25 ± 0.049 kcal/mol | 1.6 ± 0.046 kcal/mol
15 | SAGGSAGGSAGGETITIKNKKTNETVTIEKDKDGNYTITYPDGSKKTYKKGEKISKSALSAGGSAGGSAGGS [r10_98_TrROS_Hall] | 0.162 ± 0.13 kcal/mol | 0.9 ± 0.18 kcal/mol | 1.18 ± 0.14 kcal/mol
16 | SAGGSAGGSAGGEWRTLYIPIPGMPPEFIETFALELLDDGAKVEDIEWNPNNGYLMITVRSAGGSAGGSAGG [r7_906_TrROS] | 1.37 ± 0.029 kcal/mol | 1.82 ± 0.075 kcal/mol | 2.05 ± 0.056 kcal/mol
17 | SAGGSAGGSAGGFIPEDGHPDETVQLTTSLTLTTSYTLPNGETVTETHTVPVLFTYKVPSAGGSAGGSAGGS [r10_1135_TrMRF] | 0.433 ± 0.02 kcal/mol | 0.797 ± 0.054 kcal/mol | 1.02 ± 0.071 kcal/mol
18 | SAGGSAGGSAGGFVLTFTLPDSVVRITLPEDANPEEIKQRLLEEHGVPIELRLIPPSNPLSAGGSAGGSAGG [r11_805_JUSTAS] | 0.726 ± 0.12 kcal/mol | 0.782 ± 0.2 kcal/mol | 0.664 ± 0.38 kcal/mol
19 | SAGGSAGGSAGGGDFEKVKVRFRYVNPDGGPERDIEIEVEARKEDIPRLLKELKDAGLIESAGGSAGGSAGG [r7_618_TrMRF] | 0.982 ± 0.054 kcal/mol | 1.23 ± 0.099 kcal/mol | 1.25 ± 0.15 kcal/mol
20 | SAGGSAGGSAGGGISEAAASGTPLLVTYTDESGNVTEVVVRPDSPVPLPGVVSAEVRLESAGGSAGGSAGGS [r10_700_JUSTAS] | 1.05 ± 0.03 kcal/mol | 0.666 ± 0.037 kcal/mol | 0.167 ± 0.023 kcal/mol
21 | SAGGSAGGSAGGGIVIEGDIESIEVEKNPDTDYYLVTVRFKSTDKPYTFVFKKDEKLDVSAGGSAGGSAGGS [r10_819_TrMRF] | 1.49 ± 0.036 kcal/mol | 1.77 ± 0.23 kcal/mol | 2.16 ± 0.21 kcal/mol

From the supplement of paper PMC12764529
